Here are results for 18 molecules from patent US20140336110A1.

The target in assay [1] is ferroportin tagged at the C-terminus with green fluorescent protein [GFP: P42212]. Put plainly: cell-based or functional assay.
Assay [2] shares this target. Kind of assay: cell-based or functional assay. The source holds these as a separate data set.

Starred links: 1 amine or outer side, 2 acyl side, 3 side chain; linkers in the order of their positions; H or OH if unused. Non-standard residues stand in square brackets, D forms with d. Primed or numbered codes have the meaning given here. No end group written: not given here. *: point of attachment. PEG12 = NCCOCCOCCOCCOCCOCCOCCOCCOCCOCCOCCOCCOCCC(=O)O; Oic = O=C(O)[C@@H]1C[C@@H]2CCCC[C@@H]2N1; Dip = N[C@H](C(=O)O)C(c1ccccc1)c1ccccc1; Ida″ = O=C(CN(CC(=O)[*:3])[*:1])[*:2]; Palmitoyl = CCCCCCCCCCCCCCCC(=O)*; β3hF = N[C@H](CC(=O)O)Cc1ccccc1; NMeD = CN[C@@H](CC(=O)O)C(=O)O; β3hP = O=C(O)C[C@@H]1CCCN1; Ach = not defined here; Dpa = not defined here

B1: PR52 (peptide)
peptide: {Palmitoyl-PEG12}-FLCLP[Dip]HTD
modifications: not fully specified (C-terminus); printed as R4-F-L-C-L-P-Dpa-H-T-D; also: retroinverted, D residues underlined, underlining lost
B1 came in with an EC50 (nM) in vitro in assay [1] of under 10 nM.

B2: PR49 (peptide)
peptide: {Palmitoyl-PEG12}-FICIP[Dip]H
modifications: not fully specified (C-terminus); printed as R4-F-I-C-I-P-Dpa-H; also: retroinverted, D residues underlined, underlining lost
Turning to B2, the EC50 (nM) in vitro in assay [1] is under 10 nM.

B3: PR58 (peptide)
peptide: [Ida″]TH[Dpa]PICI[β3hF]
modifications: reading uncertain; also: R14 = Palmitoyl-PEG-miniPEG3- substituent, attachment not placed
In the case of B3, the EC50 (nM) in vitro in assay [1] came out at 1 nM.

B4: PR56 (peptide)
peptide: [NMeD]TH[Dpa][Oic]RCR[β3hF]
modifications: reading uncertain; also: R14 = Palmitoyl-PEG-miniPEG3- substituent, attachment not placed
Molecule B4 registered an EC50 (nM) in vitro in assay [1] of 15 nM.

B5: PR57 (peptide)
peptide: [NMeD]TH[Dpa][β3hP]RCR[β3hF]
modifications: reading uncertain; also: R14 = Palmitoyl-PEG-miniPEG3- substituent, attachment not placed
The molecule B5 had an EC50 (nM) in vitro in assay [1] of 2 nM.

B6: PR59 (peptide)
peptide: [Ida″]TH[Dpa][β3hP]ICI[β3hF]
modifications: reading uncertain; also: R14 = Palmitoyl-PEG-miniPEG3- substituent, attachment not placed
On to B6, for which, in assay [1], the EC50 (nM) in vitro worked out at 2 nM.

B7: PR53 (peptide)
peptide: [NMeD]TH[Dpa]PICI[β3hF]
modifications: reading uncertain; also: R14 = Palmitoyl-PEG-miniPEG3- substituent, attachment not placed
Turning to B7, the EC50 (nM) in vitro in assay [1] turned out to be 10 nM.

B8: PR55 (peptide)
peptide: [NMeD]TH[Dpa]P[Ach]C[Ach]F
modifications: reading uncertain; also: R14 = Palmitoyl-PEG-miniPEG3- substituent, attachment not placed
With B8, the EC50 (nM) in vitro in assay [1] is 10 nM. In assay [2], DTHFPICIF-NH2 [Hep9 (Hep1-9)] had a potency against Hep25 on a mass basis, flow-cytometry assay of ferroportin-GFP internalization (times less potent than Hep25) of 4 and a potency against Hep25 on a molar basis, flow-cytometry assay of ferroportin-GFP internalization (times less potent than Hep25) of 10. In assay [2], DTHAPICIFCCGCCHRSKCGMCCKT [Hep25 F4A] registered a relative hepcidin activity (FIG. 1) of over 70 % decrease.

B9: PR54 (peptide)
peptide: [NMeD]TH[Dpa][β3hP]ICI[β3hF]
modifications: reading uncertain; also: R14 = Palmitoyl-PEG-miniPEG3- substituent, attachment not placed
In assay [1], B9 gave an EC50 (nM) in vitro of 10 nM. Consider DTHFPIAIFC-NH2 [Hep10 (Hep1-10 C7A)], for which, in assay [2], the potency against Hep25 on a mass basis, flow-cytometry assay of ferroportin-GFP internalization (times less potent than Hep25) came to 4 and the potency against Hep25 on a molar basis, flow-cytometry assay of ferroportin-GFP internalization (times less potent than Hep25) worked out at 10.

B10: PR51 (peptide)
peptide: {Palmitoyl-PEG12}-FVCVP[Dip]HTD
modifications: not fully specified (C-terminus); printed as R4-F-V-C-V-P-Dpa-H-T-D; also: retroinverted, D residues underlined, underlining lost
In the case of B10, in assay [1], the EC50 (nM) in vitro was found to be 100 nM.

B11: PR47 (peptide)
peptide: {Palmitoyl-PEG12}-FICIP[Dip]HTD
modifications: not fully specified (C-terminus); printed as R4-F-I-C-I-P-Dpa-H-T-D; also: retroinverted, D residues underlined, underlining lost
Molecule B11 gave an EC50 (nM) in vitro in assay [1] of 50 nM.

B12: PR60 (peptide)
peptide: [Ida″]TH[Dpa]P[Ach]C[Ach]F
modifications: reading uncertain; also: R14 = Palmitoyl-PEG-miniPEG3- substituent, attachment not placed
As to B12, in assay [1], the EC50 (nM) in vitro is 3 nM. DTHFPICIACCGCCHRSKCGMCCKT [Hep25 F9A]: the relative hepcidin activity (FIG. 1) in assay [2] was over 70 % decrease.

B13: PR50 (peptide)
peptide: {Palmitoyl-PEG12}-[Dip]ICIP[Dip]H
modifications: not fully specified (C-terminus); printed as R4-Dpa-I-C-I-P-Dpa-H; also: retroinverted, D residues underlined, underlining lost
In turn, B13 registered an EC50 (nM) in vitro in assay [1] of under 10 nM.

B14: PR48 (peptide)
peptide: {Palmitoyl-PEG12}-[Dip]ICIP[Dip]HTD
modifications: not fully specified (C-terminus); printed as R4-Dpa-I-C-I-P-Dpa-H-T-D; also: retroinverted, D residues underlined, underlining lost
In assay [1], B14 gave an EC50 (nM) in vitro of 50 nM.
